B1: SOAT1 (parent)
chain: GVLILFLTFFAFLHCWLNAFAEML
B2: TIA1 (parent)
chain: TYECRCIGEEKEMWNFGEKYARF

Variants of: B1
Experiment: protein stability index of a GFP-peptide fusion (GPS, HEK-293T) (PSI 1-6); higher = more stable
Settings: c terminus: a fixed tail appended
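Further: lentivirally expressed fusions sorted by FACS into six bins by GFP to DsRed ratio, PSI derived from sequencing read proportions per bin multiplied by bin number.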

Variant | protein stability index
G1Y | 2.49
G1Q | 2.35
G1A | 3.39
G1S | 4.28
G1P | 3.53
G1N | 3.26
G1H | 3.67
G1W | 1.61
G1I | 3.7
G1V | 3.18
G1M | 2.94
G1C | 2.93
G1K | 2.23
G1R | 4.47
G1E | 3.49
G1T | 3.35
G1F | 2.2
V2I | 2.62
V2S | 1.98
V2T | 2.72
V2K | 2.31
V2A | 2.01
V2D | 2.14
V2P | 1.74
V2Y | 2.31

Variant | protein stability index
V2W | 2.95
V2E | 2.17
V2R | 3.5
V2H | 2.35
V2N | 1.42
V2M | 2.26
V2L | 1.03
V2C | 2.05
V2F | 2.32
V2Q | 2.56
L3P | 3.1
L3T | 3.86
L3K | 1.94
L3A | 2.52
L3E | 2.74
L3D | 2.13
L3F | 2.69
L3C | 3.65
L3V | 3.82
L3G | 2.85
L3R | 2.98
L3M | 3.1
L3S | 3.06
L3H | 2.34

Variants of: B2
Experiment: as above
Settings: c terminus: native

Variant | protein stability index
F23P | 2.69
F23D | 3.5
F23K | 3.29
F23Y | 2.18
F23L | 1.29
F23R | 1.52
F23H | 1.83
F23M | 2.54
F23G | 2.11
F23Q | 1.48
F23E | 3.42
F23N | 1.87
F23I | 1.59
F23T | 1.87
F23S | 2.2
F23W | 2.64
F23C | 1.61
F23A | 3.29
G17K | 1.98
G17Q | 2.1
G17V | 2.03
G17S | 1.72
G17L | 2.35
G17I | 1.16

Variant | protein stability index
G17P | 2.15
G17R | 2.1
G17T | 2.89
G17M | 1.86
G17Y | 1.7
G17N | 3.29
G17W | 2.2
R22F | 2.23
R22L | 1.01
R22C | 1.36
R22Q | 2.92
R22A | 1.79
R22S | 2.29
R22N | 3.1
R22M | 1.51
R22W | 1.6
R22E | 3.2
R22T | 2.49
R22Y | 1.81
R22H | 2.82
R22V | 2.84
R22K | 3.59
R22D | 3.77
R22G | 2.63

Variant | protein stability index
R22P | 1.92
Y20S | 3.24
Y20T | 2.61
Y20W | 2.31
Y20Q | 4
Y20K | 3.52
Y20P | 1.11
Y20F | 2.86
Y20H | 3.71
Y20A | 2.58
Y20I | 1.7
Y20E | 3.6
Y20C | 1.81
Y20M | 3.19
Y20L | 1.54
Y20G | 3.89
Y20N | 2.26
Y20D | 3.16
Y20V | 3.04
A21V | 2.37
A21F | 2.02
A21C | 1.89
A21I | 2.72
A21W | 2.42

Variant | protein stability index
A21K | 2.8
A21H | 3.06
A21S | 1.97
A21G | 2.11
A21L | 2.19
A21P | 3.79
A21M | 1.99
A21Y | 1.89
A21T | 1.44
A21E | 3.16
A21R | 2.71
A21D | 3.1
A21Q | 2.04
K19M | 1.29
K19R | 2.44
K19E | 3.18
K19Y | 4.2
K19T | 2.06
K19G | 2.51
K19L | 1.59
K19D | 3.32
K19F | 2.16
K19A | 1.65
K19I | 1.62

Variant | protein stability index
K19P | 3.04
K19Q | 2.41
K19C | 1.85
K19S | 2.27
K19V | 1.76
E18D | 2.22
E18H | 2.97
E18T | 1.67
E18K | 2.49
E18V | 3
E18S | 1.97
E18Q | 1.8
E18N | 1.79
E18W | 3.12
E18C | 2.41
E18F | 2.24
E18L | 1.94
E18M | 1.81
E18A | 1.27
E18P | 1.65
E18Y | 1.89
E18I | 2.3

Source: the supplement of paper PMC10567573
